Values of other authors, collected in PMC3100173.

Target: OmpF (Escherichia coli) (UniProt P02931)
UniProt P02931, sequence (P02931 23-362): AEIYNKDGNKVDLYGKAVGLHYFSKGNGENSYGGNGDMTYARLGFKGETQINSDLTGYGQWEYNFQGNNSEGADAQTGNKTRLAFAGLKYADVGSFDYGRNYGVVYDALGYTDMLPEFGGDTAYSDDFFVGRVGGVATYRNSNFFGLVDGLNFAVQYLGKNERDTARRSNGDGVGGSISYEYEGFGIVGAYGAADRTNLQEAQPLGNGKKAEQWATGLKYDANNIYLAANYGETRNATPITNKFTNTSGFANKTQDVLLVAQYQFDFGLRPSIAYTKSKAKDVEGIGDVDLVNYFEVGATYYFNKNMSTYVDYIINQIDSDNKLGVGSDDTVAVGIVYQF

In the case of Colicin N (from UniProt P08083), the Kd is given as 200 µM.
